Experimental data as given in article PMC10904736, “A c-di-GMP signaling module controls responses to iron in Pseudomonas aeruginosa” (Nature Communications, 2024).

Key:
[1] = biological target: the molecule itself; assay: cryo-EM structure; ImcA with the substrate analog GMPCPP, 10 mg/ml, 3.07 Å, C2 symmetry
[2] = biological target: the molecule itself; assay: SEC + native gel or EMSA; purified CHASE4 domain in solvent

Row | Protein | binding result [1] | stoichiometry N [2]
1 | PA1851 protein (purified ImcA) (natural protein, ImcA (PA1851) of Pseudomonas aeruginosa PAO1; 6TM domain L47-E231, GGDEF domain R241-A393; Homodimer in the cryo-EM structure with GMPCPP; source: E. coli BL21 (DE3), purified (membrane fraction, DDM, Strep-Tactin, Superose 6)) MLARDSLVQAGLPDNPYARQLRNGFRWLRFEKELENEFREFLSWNSLMQRRAAIGVAFLIWALFIVADWMMVDIRLHPSLFEQLLGVRLGMIGLLLVVWPAAFLPSLRKVGDAIAPYCLLLINLAVLACDVLFEWHGVPRFTQLGATLGILAVFFPLGLAFWACVRLALLCLALNLAVFLLFGGEENLRTNLLNTLYNGLVVLICSFALYLQDYAQREQFLGRRLLGMMAEQDSLTGLVNRRYYELLAQRALEQGAREEKGVALILVDVDDFKAYNDHYGHPAGDAALRQLGVVLRQGARRPLDIAARLGGEEFAVLLYDSEEGNTLAIAERLRQAVEALGIEHLGSSAGPCLTISLGVAYSTSGMGLDALYREADRALYEAKDAGRNAVRVAFRQHDRLE | binds | –
2 | CHASE4 domain of IsmP (CHASE4^IsmP) (domain or fragment, CHASE4 domain of IsmP (PA2072) of Pseudomonas aeruginosa PAO1; interface residues Q51, W55 and P247 lie outside 59-220; also called CHASE4 (IsmP^40-255); source: E. coli BL21, purified (HisTrap HP)) not shown | – | 2
